# Source: the supplement of paper PMC11780869
# System: Bacillus subtilis
# Experiment: cleaved RNA product abundance (RNA/gDNA barcode ratio) relative to median wild-type variant (ratio to wild type); higher = more accumulation of the downstream cleavage product
# Conditions: experiment (reporter, strain, medium): exp 8a: truncated aprE reporter, strain BJT201 with 2% xylose (RNase J1 expressed); cleavage site: glnRA (positions -5 to +31 mutated)
# Method in brief: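 Cleaved product abundance was measured with barcoded reporter mRNAs (truncated aprE or tetM) carrying mutagenized RNase Y cleavage-site windows in the B. subtilis chromosome. Cultures in LB at 37°C grew from OD600 0.0003 to 0.3. Gel-selected cleaved RNA was reverse transcribed and barcode-sequenced with genomic DNA barcodes, and the RNA:gDNA barcode ratio per construct was scaled to the median construct bearing the unmutated site.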
row,Sequence,cleaved RNA product abundance
1,CGACATGTCCCGCTTCTTTCATTAATCCGTTAGCAACTGTTTCGCTATACACATTTACCTTTTAAGAGGAGGAAT,0.222
2,CGACATGTCCCGCTTCTTTCATTAATCCGTTAGCAACTGTTTCGCTATATACATGTACCTTTTAAGAGGAGGAAT,0.361
3,CGACATGTCCCGCTTCTTTCATTAATCCGTTAGCAACTGTTTCGCTATATACATTTACCTTTTAAGAGGAGGAAT,0.358
4,CGACATGTCCCGCTTCTTTCATTAATCCGTTAGCAACTGTTTCGCTTTATACATTTACCTTTTAAGAGGAGGAAT,0.267
5,CGACATGTCCCGCTTCTTTCATTAATCCGTTAGCAACTGTTTCGTTATATACATTTACCTTTTAAGAGGAGGAAT,0.222
6,CGACATGTCCCGCTTCTTTCATTAATCCGTTAGCAACTGTTTGACTATATACATTTACCTTTTAAGAGGAGGAAT,0.605
7,CGACATGTCCCGCTTCTTTCATTAATCCGTTAGCAACTGTTTGCTATATACATTTACCTTTTAAGAGGAGGAATT,1.42
8,CGACATGTCCCGCTTCTTTCATTAATCCGTTAGCAACTGTTTGGCAATATACATTTACCTTTTAAGAGGAGGAAT,0.499
9,CGACATGTCCCGCTTCTTTCATTAATCCGTTAGCAACTGTTTGGCTATAAACATTTACCTTTTAAGAGGAGGAAT,0.327
10,CGACATGTCCCGCTTCTTTCATTAATCCGTTAGCAACTGTTTGGCTATATAAATTTACCTTTTAAGAGGAGGAAT,0.518
11,CGACATGTCCCGCTTCTTTCATTAATCCGTTAGCAACTGTTTGGCTATATACAATTACCTTTTAAGAGGAGGAAT,0.279
12,CGACATGTCCCGCTTCTTTCATTAATCCGTTAGCAACTGTTTGGCTATATACATTTAACTTTTAAGAGGAGGAAT,0.488
13,CGACATGTCCCGCTTCTTTCATTAATCCGTTAGCAACTGTTTGGCTATATACATTTACATTTTAAGAGGAGGAAT,0.339
14,CGACATGTCCCGCTTCTTTCATTAATCCGTTAGCAACTGTTTGGCTATATACATTTACCGTTTAAGAGGAGGAAT,0.403
15,CGACATGTCCCGCTTCTTTCATTAATCCGTTAGCAACTGTTTGGCTATATACATTTACCTTTTAAGAGGAGGAAT,0.493
16,CGACATGTCCCGCTTCTTTCATTAATCCGTTAGCAACTGTTTGGCTATATACATTTACGTTTTAAGAGGAGGAAT,0.403
17,CGACATGTCCCGCTTCTTTCATTAATCCGTTAGCAACTGTTTGGCTATATATATTTACCTTTTAAGAGGAGGAAT,0.546
18,CGACATGTCCCGCTTCTTTCATTAATCCGTTAGCAACTGTTTTAAAATATACATTTACCTTTTAAGAGGAGGAAT,0.571
19,CGACATGTCCCGCTTCTTTCATTAATCCGTTAGCAACTGTTTTAATATATACATTTACCTTTTAAGAGGAGGAAT,0.589
20,CGACATGTCCCGCTTCTTTCATTAATCCGTTAGCAACTGTTTTACAATATACATTTACCTTTTAAGAGGAGGAAT,0.534
21,CGACATGTCCCGCTTCTTTCATTAATCCGTTAGCAACTGTTTTACGATATACATTTACCTTTTAAGAGGAGGAAT,0.559
22,CGACATGTCCCGCTTCTTTCATTAATCCGTTAGCAACTGTTTTACTAAATACATTTACCTTTTAAGAGGAGGAAT,0.499
23,CGACATGTCCCGCTTCTTTCATTAATCCGTTAGCAACTGTTTTACTATAAACATTTACCTTTTAAGAGGAGGAAT,0.553
24,CGACATGTCCCGCTTCTTTCATTAATCCGTTAGCAACTGTTTTACTATATAAATTTACCTTTTAAGAGGAGGAAT,0.596
25,CGACATGTCCCGCTTCTTTCATTAATCCGTTAGCAACTGTTTTACTATATACAATTACCTTTTAAGAGGAGGAAT,0.613
26,CGACATGTCCCGCTTCTTTCATTAATCCGTTAGCAACTGTTTTACTATATACAATTACTTTTTAAGAGGAGGAAT,0.712
27,CGACATGTCCCGCTTCTTTCATTAATCCGTTAGCAACTGTTTTACTATATACATATACCTTTTAAGAGGAGGAAT,1.11
